In US5679542 one finds botrocetin/ristocetin-induced agglutination inhibition assay using PRP and concentration that inhibited the binding of vWF to platelets data, which are given here for three substances.

Values joined by “and” are separate entries in the source; they are usually repeats but may differ in a detail not shown here. Identical values can stand only once.

Test [1] concerns the target platelet glycoprotein GPIb-IX complex (Homo sapiens (Human)) (UniProt P07359).
Test [2] has the same target. Kind of test: inhibition of botrocetin-induced 125I-vWF binding to washed platelets (procedure of Ruggeri et al.); competitor vWF.

Turning to “CC, platelet antiadhesive purified from Cerastes cerastes venom”, the botrocetin/ristocetin-induced agglutination inhibition assay using PRP in test [1] was 3 µg/mL and 2 µg/mL.

Regarding “purified protein from C. horridus horridus, as prepared in Example 2 (as tested in Example 6)”, the botrocetin/ristocetin-induced agglutination inhibition assay using PRP in test [1] was 2 µg/mL and 3 µg/mL.

In test [2], “CHH-B, platelet antiadhesive (GPIb inhibitor) purified from Crotalus horridus horridus venom” showed a concentration that inhibited the binding of vWF to platelets of less than 200 nM.
